Substitutions are numbered along the chain they refer to.
Tests used:
[1] = molecular target: T1, human IL-17D (human, UniProt Q8TAD2 16-202, limits assumed); assay: competition ELISA: coated scFv, biotinylated IL-17A, unlabeled cytokine as competitor
T1 sequence: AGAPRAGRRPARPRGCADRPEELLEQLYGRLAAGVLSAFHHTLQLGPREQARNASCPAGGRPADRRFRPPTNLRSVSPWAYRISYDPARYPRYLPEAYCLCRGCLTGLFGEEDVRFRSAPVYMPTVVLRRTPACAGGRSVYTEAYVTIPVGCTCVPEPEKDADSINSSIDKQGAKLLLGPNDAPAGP

[2] = molecular target: T2, human IL-17E (human, UniProt Q9H293 33-177); assay: as above
T2 construct: also called IL-25
T2 sequence: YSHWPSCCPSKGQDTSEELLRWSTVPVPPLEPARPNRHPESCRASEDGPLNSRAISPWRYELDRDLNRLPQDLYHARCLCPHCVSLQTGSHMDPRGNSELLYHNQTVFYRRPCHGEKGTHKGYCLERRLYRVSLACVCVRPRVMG

[3] = molecular target: T3, human IL-17F (human, UniProt Q96PD4 31-163); assay: as above
T3 construct: Peprotech Cat. No. 200-25 in the direct ELISA
T3 sequence: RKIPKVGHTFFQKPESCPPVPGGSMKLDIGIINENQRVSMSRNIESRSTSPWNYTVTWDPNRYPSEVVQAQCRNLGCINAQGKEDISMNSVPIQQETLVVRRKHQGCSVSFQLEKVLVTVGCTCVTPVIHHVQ

[4] = molecular target: T4, human IL-17B (human, UniProt Q9UHF5 21-180); assay: as above
T4 sequence: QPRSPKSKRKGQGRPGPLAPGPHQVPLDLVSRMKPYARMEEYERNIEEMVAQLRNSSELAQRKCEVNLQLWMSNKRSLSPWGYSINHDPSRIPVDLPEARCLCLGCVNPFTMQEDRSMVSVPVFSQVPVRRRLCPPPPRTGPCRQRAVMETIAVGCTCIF

[5] = molecular target: T5, human IL-17C (human, UniProt Q9P0M4 19-197); assay: as above
T5 sequence: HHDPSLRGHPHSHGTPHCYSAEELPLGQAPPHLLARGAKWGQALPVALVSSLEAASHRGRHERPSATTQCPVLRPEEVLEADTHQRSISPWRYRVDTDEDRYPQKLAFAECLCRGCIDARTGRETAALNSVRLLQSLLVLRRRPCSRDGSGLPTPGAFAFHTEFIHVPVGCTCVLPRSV

[6] = molecular target: T6, cynomolgus monkey IL-17A (cynomolgus monkey (Macaca fascicularis)); assay: SPR (Biacore T200), cynomolgus IL-17A (Trenzyme), scFv as analyte
T6 chain: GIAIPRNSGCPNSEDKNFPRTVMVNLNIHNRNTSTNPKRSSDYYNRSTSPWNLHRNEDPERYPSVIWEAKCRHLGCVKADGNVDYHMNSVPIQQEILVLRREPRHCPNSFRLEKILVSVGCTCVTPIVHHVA

B1: PRO571 (scFv)
scFv: DIQMTQSPSSLSASVGDRVTITCQASESIYRYLSWYQQKPGKAPKLLIYLASTLTSGVPSRFSGSGSGTDFTLTISSLQPEDFATYYCQSNFGTASTTYYNTFGGGTKLTVLGGGGGSGGGGSGGGGSGGGGSEVQLVESGGGLVQPGGSLRLSCAASGFSFSGFYYMCWVRQAPGKGLEWIGCIDTGDGTTYYASWAKGRFTISRDNSKNTVYLQMNSLRAEDTAVYYCARDAAYGGYAYPAHGMDLWGQGTLVTVSS
notes: also called 27-31-C04-sc01; 27_31_C04_sc01
Does B1 bind [1]?
Result: no binding

Does B1 bind [2]?
Result: no binding

Does B1 bind [3]?
Result: no binding

Does B1 bind [4]?
Result: no binding

Does B1 bind [5]?
Result: no binding

And the Kd [6]?
The Kd was 0.0331 nM.

And the koff [6]?
Its koff is 3.88e-05 s⁻¹.

And the kon [6]?
The kon was 1.17e+06 M⁻¹ s⁻¹.

B2: PRO592 (scFv)
scFv: B1 scFv with R152T, Q251P
notes: also called 27-31-C04-sc02; 27_31_C04_sc02
Does B2 bind [1]?
Result: no binding

Does B2 bind [2]?
Result: no binding

Does B2 bind [3]?
Result: no binding

Does B2 bind [4]?
Result: no binding

Does B2 bind [5]?
Result: no binding

And the Kd [6]?
The Kd was 0.16 nM.

And the koff [6]?
Its koff is 5.38e-05 s⁻¹.

What about the kon [6] of the same binder?
The kon was 336000 M⁻¹ s⁻¹.

Source: EP3689907A1 (Numab Therapeutics AG, dated 2020)
